# Laboratory results taken from PMC9482650, “Quantitative fragmentomics allow affinity mapping of interactomes” (Nature Communications, 2022).
# T1: MPP5, Q8N3R9
# T1 sequence (Q8N3R9 251-346, limits assumed, looked up): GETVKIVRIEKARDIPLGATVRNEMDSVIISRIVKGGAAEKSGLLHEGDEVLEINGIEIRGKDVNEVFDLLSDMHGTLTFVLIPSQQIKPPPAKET
# T2: PDLIM3, Q53GG5
# T2 sequence (Q53GG5 1-94, limits assumed, looked up): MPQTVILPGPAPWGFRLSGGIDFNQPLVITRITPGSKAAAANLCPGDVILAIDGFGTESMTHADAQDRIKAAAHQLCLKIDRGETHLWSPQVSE
# T3: PTPN4, P29074
# T3 sequence (P29074 512-599, limits assumed, looked up): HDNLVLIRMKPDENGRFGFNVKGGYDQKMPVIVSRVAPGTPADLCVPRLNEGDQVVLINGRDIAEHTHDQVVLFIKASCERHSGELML
# T4: USH1C_2, Q9Y6N9
# T4 sequence (Q9Y6N9 206-303, limits assumed, looked up): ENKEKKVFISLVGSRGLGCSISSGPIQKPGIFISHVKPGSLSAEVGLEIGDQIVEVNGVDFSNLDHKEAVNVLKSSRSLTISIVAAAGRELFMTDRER
# T5: PARD6G, Q9BYG4
# T5 sequence (Q9BYG4 153-261, limits assumed, looked up): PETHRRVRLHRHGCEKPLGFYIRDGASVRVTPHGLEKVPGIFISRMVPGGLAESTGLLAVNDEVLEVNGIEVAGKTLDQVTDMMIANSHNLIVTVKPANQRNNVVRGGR
# T6: PDZD2_3, O15018
# T6 sequence (O15018 581-682, limits assumed, looked up): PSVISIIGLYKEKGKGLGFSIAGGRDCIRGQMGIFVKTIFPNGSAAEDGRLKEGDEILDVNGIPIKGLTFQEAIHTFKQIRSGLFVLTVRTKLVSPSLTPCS
# T7: PDZD2_5, O15018
# T7 sequence (O15018 2617-2716, limits assumed, looked up): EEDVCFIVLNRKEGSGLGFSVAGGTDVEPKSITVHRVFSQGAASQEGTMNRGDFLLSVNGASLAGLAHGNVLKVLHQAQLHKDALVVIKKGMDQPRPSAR
# T8: MPDZ_3, O75970
# T8 sequence (O75970 372-473, limits assumed, looked up): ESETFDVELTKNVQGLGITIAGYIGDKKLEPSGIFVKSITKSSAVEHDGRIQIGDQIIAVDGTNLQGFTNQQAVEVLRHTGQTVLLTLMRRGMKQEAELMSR
# T9: SIPA1L3, O60292
# T9 sequence (O60292 961-1052, limits assumed, looked up): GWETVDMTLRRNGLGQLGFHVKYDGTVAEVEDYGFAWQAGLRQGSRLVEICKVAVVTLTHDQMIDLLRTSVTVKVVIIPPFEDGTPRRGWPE
# T10: SHROOM4, Q9ULL8
# T10 sequence (Q9ULL8 5-102, limits assumed, looked up): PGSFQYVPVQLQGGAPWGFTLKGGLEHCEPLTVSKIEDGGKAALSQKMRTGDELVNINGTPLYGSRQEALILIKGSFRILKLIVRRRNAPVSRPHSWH
# T11: MPDZ_2, O75970
# T11 sequence (O75970 252-347, limits assumed, looked up): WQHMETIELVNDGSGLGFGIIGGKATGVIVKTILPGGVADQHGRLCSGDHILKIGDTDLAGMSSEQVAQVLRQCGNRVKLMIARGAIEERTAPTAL
# T12: PDZD2_1, O15018
# T12 sequence (O15018 80-192, limits assumed, looked up): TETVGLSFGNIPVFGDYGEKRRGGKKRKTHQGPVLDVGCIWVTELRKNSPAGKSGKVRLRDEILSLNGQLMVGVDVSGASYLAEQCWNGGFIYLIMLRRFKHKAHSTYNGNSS
# T13: PDZD2_6, O15018
# T13 sequence (O15018 2745-2839, limits assumed, looked up): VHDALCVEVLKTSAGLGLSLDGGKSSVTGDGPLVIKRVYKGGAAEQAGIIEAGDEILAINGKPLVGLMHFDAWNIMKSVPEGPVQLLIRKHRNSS
# T14: MPDZ_6, O75970
# T14 sequence (O75970 1003-1099, limits assumed, looked up): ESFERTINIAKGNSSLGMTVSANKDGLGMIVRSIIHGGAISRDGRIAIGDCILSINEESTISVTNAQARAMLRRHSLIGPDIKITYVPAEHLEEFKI
# Key:
# Experiment in all cases: holdup assay
# Set-up in all cases: key: below the threshold = too weak to quantify, mostly under pKd 3.1 to 4
# MAGI1_3, Q96QZ7 = molecular target: MAGI1_3, Q96QZ7
# MAGI1_3, Q96QZ7, sequence (Q96QZ7 638-725): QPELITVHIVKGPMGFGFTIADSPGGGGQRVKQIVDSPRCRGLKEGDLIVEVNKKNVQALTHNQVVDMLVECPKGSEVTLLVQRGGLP
# PDLIM4, P50479 = molecular target: PDLIM4, P50479
# PDLIM4, P50479, sequence (P50479 1-83): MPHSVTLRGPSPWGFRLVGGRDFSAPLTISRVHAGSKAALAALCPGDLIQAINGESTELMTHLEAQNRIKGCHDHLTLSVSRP
# NHERF2_1, Q15599 = molecular target: NHERF2_1, Q15599
# NHERF2_1, Q15599, sequence (Q15599 9-91): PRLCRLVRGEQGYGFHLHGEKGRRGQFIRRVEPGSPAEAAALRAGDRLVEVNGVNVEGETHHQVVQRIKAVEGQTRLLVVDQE
# MPP5, Q8N3R9 = molecular target: T1, MPP5, Q8N3R9
# PDLIM3, Q53GG5 = molecular target: T2, PDLIM3, Q53GG5
# PTPN4, P29074 = molecular target: T3, PTPN4, P29074
# USH1C_2, Q9Y6N9 = molecular target: T4, USH1C_2, Q9Y6N9
# PARD3_1, Q8TEW0 = molecular target: PARD3_1, Q8TEW0
# PARD3_1, Q8TEW0, sequence (Q8TEW0 264-372): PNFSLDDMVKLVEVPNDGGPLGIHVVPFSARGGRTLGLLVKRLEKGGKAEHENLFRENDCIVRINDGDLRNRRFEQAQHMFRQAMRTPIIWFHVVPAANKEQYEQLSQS
# PARD6G, Q9BYG4 = molecular target: T5, PARD6G, Q9BYG4
# PDZD2_3, O15018 = molecular target: T6, PDZD2_3, O15018
# PDZD2_5, O15018 = molecular target: T7, PDZD2_5, O15018
# MAGI3_5, Q5TCQ9 = molecular target: MAGI3_5, Q5TCQ9
# MAGI3_5, Q5TCQ9, sequence (Q5TCQ9 847-941): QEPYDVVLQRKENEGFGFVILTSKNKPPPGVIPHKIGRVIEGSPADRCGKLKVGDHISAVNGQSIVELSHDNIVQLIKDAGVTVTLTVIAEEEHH
# MPDZ_3, O75970 = molecular target: T8, MPDZ_3, O75970
# NHERF4_3, Q86UT5 = molecular target: NHERF4_3, Q86UT5
# NHERF4_3, Q86UT5, sequence (Q86UT5 325-412): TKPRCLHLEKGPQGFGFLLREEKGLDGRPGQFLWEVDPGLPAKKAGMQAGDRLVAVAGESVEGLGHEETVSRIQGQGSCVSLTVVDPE
# SIPA1L3, O60292 = molecular target: T9, SIPA1L3, O60292
# SHROOM4, Q9ULL8 = molecular target: T10, SHROOM4, Q9ULL8
# MAGI1_6, Q96QZ7 = molecular target: MAGI1_6, Q96QZ7
# MAGI1_6, Q96QZ7, sequence (Q96QZ7 1146-1238): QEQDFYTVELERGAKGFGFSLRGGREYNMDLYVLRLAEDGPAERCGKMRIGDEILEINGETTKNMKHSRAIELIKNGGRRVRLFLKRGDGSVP
# MPDZ_2, O75970 = molecular target: T11, MPDZ_2, O75970
# PDZD2_1, O15018 = molecular target: T12, PDZD2_1, O15018
# PDZD2_6, O15018 = molecular target: T13, PDZD2_6, O15018
# MPDZ_6, O75970 = molecular target: T14, MPDZ_6, O75970
# RIMS1, Q86UR5 = molecular target: RIMS1, Q86UR5
# RIMS1, Q86UR5, sequence (Q86UR5 584-692): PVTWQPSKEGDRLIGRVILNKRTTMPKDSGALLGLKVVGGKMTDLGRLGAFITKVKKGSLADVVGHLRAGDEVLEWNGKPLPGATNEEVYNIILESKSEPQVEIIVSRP
# [1] = modified: acetyl on K at position -1 from the C-terminal residue
# [2] = plain residues with an end cap or a label only (N-terminal biotin on a linker: (peg)3)
# [3] = modified: phospho on S at position -3 from the C-terminal residue
binder,measurement,setting,value
"DEDQHTQITKV [PTEN_Ac, P60484]",pKd,"MAGI1_3, Q96QZ7; [1]",4.98
same,pKd,"PDLIM4, P50479; [1]",below the threshold
same,pKd,"NHERF2_1, Q15599; [1]",below the threshold
same,pKd,"MPP5, Q8N3R9; [1]",below the threshold
same,pKd,"PDLIM3, Q53GG5; [1]",below the threshold
same,pKd,"PTPN4, P29074; [1]",below the threshold
same,pKd,"USH1C_2, Q9Y6N9; [1]",below the threshold
same,pKd,"PARD3_1, Q8TEW0; [1]",below the threshold
same,pKd,"PARD6G, Q9BYG4; [1]",below the threshold
same,pKd,"PDZD2_3, O15018; [1]",below the threshold
same,pKd,"PDZD2_5, O15018; [1]",below the threshold
same,pKd,"MAGI3_5, Q5TCQ9; [1]",3.97
same,pKd,"MPDZ_3, O75970; [1]",below the threshold
same,pKd,"NHERF4_3, Q86UT5; [1]",below the threshold
same,pKd,"SIPA1L3, O60292; [1]",below the threshold
same,pKd,"SHROOM4, Q9ULL8; [1]",below the threshold
same,pKd,"MAGI1_6, Q96QZ7; [1]",below the threshold
same,pKd,"MPDZ_2, O75970; [1]",4.3
same,pKd,"PDZD2_1, O15018; [1]",below the threshold
same,pKd,"PDZD2_6, O15018; [1]",below the threshold
same,pKd,"MPDZ_6, O75970; [1]",below the threshold
same,pKd,"RIMS1, Q86UR5; [1]",below the threshold
"YDEPTTTTSVPL [SARS-Cov2-3a, P0DTC3]",pKd,"MAGI1_3, Q96QZ7; [2]",below the threshold
same,pKd,"PDLIM4, P50479; [2]",below the threshold
same,pKd,"NHERF2_1, Q15599; [2]",below the threshold
same,pKd,"MPP5, Q8N3R9; [2]",below the threshold
same,pKd,"PDLIM3, Q53GG5; [2]",below the threshold
same,pKd,"PTPN4, P29074; [2]",below the threshold
same,pKd,"USH1C_2, Q9Y6N9; [2]",below the threshold
same,pKd,"PARD3_1, Q8TEW0; [2]",3.98
same,pKd,"PARD6G, Q9BYG4; [2]",below the threshold
same,pKd,"PDZD2_3, O15018; [2]",below the threshold
same,pKd,"PDZD2_5, O15018; [2]",below the threshold
same,pKd,"MAGI3_5, Q5TCQ9; [2]",below the threshold
same,pKd,"MPDZ_3, O75970; [2]",below the threshold
same,pKd,"NHERF4_3, Q86UT5; [2]",below the threshold
same,pKd,"SIPA1L3, O60292; [2]",below the threshold
same,pKd,"SHROOM4, Q9ULL8; [2]",below the threshold
same,pKd,"MAGI1_6, Q96QZ7; [2]",below the threshold
same,pKd,"MPDZ_2, O75970; [2]",below the threshold
same,pKd,"PDZD2_1, O15018; [2]",below the threshold
same,pKd,"PDZD2_6, O15018; [2]",below the threshold
same,pKd,"MPDZ_6, O75970; [2]",below the threshold
same,pKd,"RIMS1, Q86UR5; [2]",below the threshold
"RRVRKLPSTTL [RPS6KA1_-3P, Q15418]",pKd,"MAGI1_3, Q96QZ7; [3]",below the threshold
same,pKd,"PDLIM4, P50479; [3]",3.63
same,pKd,"NHERF2_1, Q15599; [3]",below the threshold
same,pKd,"MPP5, Q8N3R9; [3]",below the threshold
same,pKd,"PDLIM3, Q53GG5; [3]",below the threshold
same,pKd,"PTPN4, P29074; [3]",3.54
same,pKd,"USH1C_2, Q9Y6N9; [3]",below the threshold
same,pKd,"PARD3_1, Q8TEW0; [3]",below the threshold
same,pKd,"PARD6G, Q9BYG4; [3]",below the threshold
same,pKd,"PDZD2_3, O15018; [3]",below the threshold
same,pKd,"PDZD2_5, O15018; [3]",below the threshold
same,pKd,"MAGI3_5, Q5TCQ9; [3]",below the threshold
same,pKd,"MPDZ_3, O75970; [3]",below the threshold
same,pKd,"NHERF4_3, Q86UT5; [3]",below the threshold
same,pKd,"SIPA1L3, O60292; [3]",below the threshold
same,pKd,"SHROOM4, Q9ULL8; [3]",below the threshold
same,pKd,"MAGI1_6, Q96QZ7; [3]",below the threshold
same,pKd,"MPDZ_2, O75970; [3]",below the threshold
same,pKd,"PDZD2_1, O15018; [3]",below the threshold
same,pKd,"PDZD2_6, O15018; [3]",below the threshold
same,pKd,"MPDZ_6, O75970; [3]",below the threshold
same,pKd,"RIMS1, Q86UR5; [3]",below the threshold
